The target of experiment [1] is T1, BA.1 RBD (SARS-CoV-2 Omicron BA.1 (GISAID …, strain)).
T1 construct: not shown: His tag, C-terminal, kept
Briefly: SPR. As to conditions: both partners purified.

In experiment [2] the target is T2, XBB.1.5 RBD (SARS-CoV-2 Omicron XBB.1.5 (GISAID …, E484A (prototypic numbering) | F490S (prototypic numbering))).
T2 construct: not shown: His tag, C-terminal, kept
Nature of the experiment: SPR. Conditions: both partners purified.

What is called Kd is a measure of binding affinity in units of concentration.

B1: Nanosota-3C (VHH)
VHH: QVQLQESGGGLVQAGGSLRLSCAASGSIFSPNTMGWFRQALGKQREGVAFISSIASTSYWLPVKGRFTITRDNTKNTVHLQMNSLIPEDTAVYYCYAVDKSQDYWGQGTQVTVSS
On to B1, for which the figures for the equilibrium dissociation constant (Kd) in experiment [1] and in experiment [2] were 27.3 nM and 2.04 nM, respectively.

(Values after paper PMC11460708 (PLOS Pathogens, 2024).)
